Measured values taken from patent US20240059758A1 (CORAT THERAPEUTICS, published 2024).

T1: MERS-CoV Spike protein (MERS-CoV, UniProt K9N5Q8 18-725)
T1 sequence: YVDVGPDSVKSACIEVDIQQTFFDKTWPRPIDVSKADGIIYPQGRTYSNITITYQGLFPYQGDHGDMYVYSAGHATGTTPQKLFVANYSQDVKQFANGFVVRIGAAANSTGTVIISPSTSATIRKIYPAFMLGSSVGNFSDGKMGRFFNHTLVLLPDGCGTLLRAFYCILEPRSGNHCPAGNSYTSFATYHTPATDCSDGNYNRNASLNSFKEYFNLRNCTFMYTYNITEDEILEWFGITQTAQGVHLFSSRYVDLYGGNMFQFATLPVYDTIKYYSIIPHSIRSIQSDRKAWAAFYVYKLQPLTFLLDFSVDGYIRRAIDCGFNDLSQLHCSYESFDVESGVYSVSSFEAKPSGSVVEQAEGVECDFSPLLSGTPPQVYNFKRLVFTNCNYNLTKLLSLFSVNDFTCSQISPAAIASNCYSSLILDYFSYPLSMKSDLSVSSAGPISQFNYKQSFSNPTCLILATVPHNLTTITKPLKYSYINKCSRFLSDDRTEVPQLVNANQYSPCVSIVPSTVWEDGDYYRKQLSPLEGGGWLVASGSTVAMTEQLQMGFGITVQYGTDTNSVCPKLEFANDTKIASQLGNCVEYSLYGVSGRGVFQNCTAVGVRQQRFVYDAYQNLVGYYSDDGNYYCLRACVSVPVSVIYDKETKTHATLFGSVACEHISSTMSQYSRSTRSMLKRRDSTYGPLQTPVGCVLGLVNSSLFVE

T2: HCoV-NL63 Spike protein (HCoV-NL63, UniProt Q6Q1S2 19-717)
T2 sequence: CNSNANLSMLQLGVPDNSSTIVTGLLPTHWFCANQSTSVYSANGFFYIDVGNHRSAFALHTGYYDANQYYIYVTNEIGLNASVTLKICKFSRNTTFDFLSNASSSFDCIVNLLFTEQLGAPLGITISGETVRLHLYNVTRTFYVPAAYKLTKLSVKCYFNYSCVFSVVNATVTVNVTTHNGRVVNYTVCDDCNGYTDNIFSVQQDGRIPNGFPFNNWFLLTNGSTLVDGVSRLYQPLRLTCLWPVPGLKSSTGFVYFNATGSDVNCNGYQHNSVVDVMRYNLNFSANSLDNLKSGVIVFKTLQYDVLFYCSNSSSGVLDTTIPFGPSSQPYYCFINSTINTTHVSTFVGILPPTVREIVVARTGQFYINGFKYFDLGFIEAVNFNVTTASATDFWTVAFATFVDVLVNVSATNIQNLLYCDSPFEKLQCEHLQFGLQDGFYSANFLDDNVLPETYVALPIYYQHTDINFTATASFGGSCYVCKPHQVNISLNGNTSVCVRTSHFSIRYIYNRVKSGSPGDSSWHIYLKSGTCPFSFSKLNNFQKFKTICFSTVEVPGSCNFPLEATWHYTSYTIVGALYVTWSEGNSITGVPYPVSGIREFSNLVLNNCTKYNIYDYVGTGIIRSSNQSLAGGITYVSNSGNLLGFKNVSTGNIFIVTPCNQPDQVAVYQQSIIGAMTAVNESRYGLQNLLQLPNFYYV

T3: HCov-HKU1 Spike protein (HCoV-HKU1, UniProt Q5MQD0 13-760)
T3 sequence: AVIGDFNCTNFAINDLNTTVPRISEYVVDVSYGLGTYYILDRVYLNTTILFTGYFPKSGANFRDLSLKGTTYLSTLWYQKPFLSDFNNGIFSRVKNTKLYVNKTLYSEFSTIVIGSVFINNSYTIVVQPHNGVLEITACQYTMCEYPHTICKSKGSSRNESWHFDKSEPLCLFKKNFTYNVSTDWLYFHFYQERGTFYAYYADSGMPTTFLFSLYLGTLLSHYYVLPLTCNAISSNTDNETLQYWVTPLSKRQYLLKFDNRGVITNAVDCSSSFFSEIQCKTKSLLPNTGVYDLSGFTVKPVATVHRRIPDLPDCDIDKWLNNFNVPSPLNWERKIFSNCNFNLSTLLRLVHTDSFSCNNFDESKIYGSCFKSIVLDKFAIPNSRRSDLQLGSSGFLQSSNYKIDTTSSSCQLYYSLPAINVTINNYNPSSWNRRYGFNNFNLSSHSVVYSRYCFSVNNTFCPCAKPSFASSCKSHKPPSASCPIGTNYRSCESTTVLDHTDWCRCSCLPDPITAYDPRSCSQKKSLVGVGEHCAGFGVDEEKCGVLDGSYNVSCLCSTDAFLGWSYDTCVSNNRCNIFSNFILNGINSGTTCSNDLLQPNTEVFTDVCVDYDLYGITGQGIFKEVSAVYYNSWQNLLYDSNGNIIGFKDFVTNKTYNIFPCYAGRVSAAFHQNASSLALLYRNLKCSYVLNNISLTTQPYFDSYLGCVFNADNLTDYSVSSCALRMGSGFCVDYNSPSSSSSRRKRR

T4: HCoV-229E Spike protein (HCoV-229E, UniProt P15423 16-560)
T4 sequence: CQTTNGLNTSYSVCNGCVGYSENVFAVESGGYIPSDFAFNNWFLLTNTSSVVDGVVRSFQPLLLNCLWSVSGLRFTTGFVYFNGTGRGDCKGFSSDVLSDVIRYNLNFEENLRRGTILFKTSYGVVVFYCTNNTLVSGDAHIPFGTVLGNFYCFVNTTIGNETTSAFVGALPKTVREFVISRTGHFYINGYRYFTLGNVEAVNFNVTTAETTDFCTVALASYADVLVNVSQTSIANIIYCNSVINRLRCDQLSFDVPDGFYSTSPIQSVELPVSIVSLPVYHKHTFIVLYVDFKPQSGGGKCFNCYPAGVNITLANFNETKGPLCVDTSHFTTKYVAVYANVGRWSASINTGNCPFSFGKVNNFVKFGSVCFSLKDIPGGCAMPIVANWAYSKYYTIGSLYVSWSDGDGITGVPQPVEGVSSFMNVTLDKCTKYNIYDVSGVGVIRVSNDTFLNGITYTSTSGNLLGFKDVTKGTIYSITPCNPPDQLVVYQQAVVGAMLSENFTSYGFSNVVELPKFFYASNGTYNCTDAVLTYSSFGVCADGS


Tests used:
[1] = target: RBD-mFc (Sino Biologicals) (SARS-CoV-2, UniProt P0DTC2 319-541); test: BLI, RBD-mFc on anti-mouse Fc capture sensor, Fab in solution
MERS-CoV Spike protein = target: T1, MERS-CoV Spike protein; test: titration ELISA
HCoV-NL63 Spike protein = target: T2, HCoV-NL63 Spike protein; test: titration ELISA
HCov-HKU1 Spike protein = target: T3, HCov-HKU1 Spike protein; test: titration ELISA
SARS-CoV-1 Spike protein = SARS-CoV-1 Spike protein (SARS-CoV-1, UniProt P59594 14-667); test: titration ELISA
HCoV-229E Spike protein = target: T4, HCoV-229E Spike protein; test: titration ELISA

| Binder | Kd [1] [nM] | binding result (MERS-CoV Spike protein) | binding result (HCoV-NL63 Spike protein) | binding result (HCov-HKU1 Spike protein) | binding result (SARS-CoV-1 Spike protein) | binding result (HCoV-229E Spike protein) |
| --- | --- | --- | --- | --- | --- | --- |
| YU537-H11 (Fab) (Fab, V domains shown) VH: EVQLLESGGGLIQPGGSLRLSCAASGLTVSSNYMSWVRQAPGKGLEWVSVIYSGGSTYYADSVKGRFTISRDNSKNALYLQMNSLRAEDTAVYYCARGESGSPYGMDVWGQGTLVTVSS VL: QSVLTQPPSVSAAPGQKVTISCSGSSSNIGNNYVSWYQQLPGTAPKLLIYDTNKRPSGIPDRFSGSKSGTSATLGITGLQTGDEADYYCATWDSSLSVGVFGGGTKLTVL | 61.1 | – | – | – | – | – |
| YU537-H11 (antibody, V domains shown) VH: EVQLLESGGGLIQPGGSLRLSCAASGLTVSSNYMSWVRQAPGKGLEWVSVIYSGGSTYYADSVKGRFTISRDNSKNALYLQMNSLRAEDTAVYYCARGESGSPYGMDVWGQGTLVTVSS VL: QSVLTQPPSVSAAPGQKVTISCSGSSSNIGNNYVSWYQQLPGTAPKLLIYDTNKRPSGIPDRFSGSKSGTSATLGITGLQTGDEADYYCATWDSSLSVGVFGGGTKLTVL | – | no binding | no binding | no binding | no binding | no binding |
| YU536-D04 (Fab) (Fab, V domains shown) VH: QVQLVQSGGGLVQPGGSLRLSCAASGLTVSSNYMSWVRQAPGKGLEWVSVIYSGGSTYYADSVKGRFIISRDNSKNTLYLQMNSLRAEDTAVYYCARDLVVMGLDVWGKGTLVTVSS VL: DIQLTQSPSSLSASVGDRVTITCRASQGISSYLAWYQQKPGKAPKLLIYAASTLQSGVPSRFSGSGSGTDFTLTISSLQPEDFATYYCQQLNSYPITFGQGTKLEIK | 17.5 | – | – | – | – | – |
| YU536-D04 (antibody, V domains shown) VH: QVQLVQSGGGLVQPGGSLRLSCAASGLTVSSNYMSWVRQAPGKGLEWVSVIYSGGSTYYADSVKGRFIISRDNSKNTLYLQMNSLRAEDTAVYYCARDLVVMGLDVWGKGTLVTVSS VL: DIQLTQSPSSLSASVGDRVTITCRASQGISSYLAWYQQKPGKAPKLLIYAASTLQSGVPSRFSGSGSGTDFTLTISSLQPEDFATYYCQQLNSYPITFGQGTKLEIK | – | no binding | no binding | no binding | no binding | no binding |
| STE90-C11 (Fab) (Fab, V domains shown) VH: QVQLVESGGGLVQPGGSLRLSCAASGLTVSSNYMSWVRQAPGKGLEWVSVIYSGGSTYYADSVKGRFTISRDDSKNTLYLQMNSLRAEDTAVYYCARDVADAFDIWGQGTMVTVSS VL: DIVMTQSPSFLSASVGDRVTITCRASQGISSYLAWYQQKPGKAPKLLIYAASTLQSGVPSRFSGSGSGTEFTLTISSLQPEDFATYYCQQLNSYPPFTFGPGTKVDIK | 8.14 | – | – | – | – | – |
| STE90-C11 (antibody, V domains shown) VH: QVQLVESGGGLVQPGGSLRLSCAASGLTVSSNYMSWVRQAPGKGLEWVSVIYSGGSTYYADSVKGRFTISRDDSKNTLYLQMNSLRAEDTAVYYCARDVADAFDIWGQGTMVTVSS VL: DIVMTQSPSFLSASVGDRVTITCRASQGISSYLAWYQQKPGKAPKLLIYAASTLQSGVPSRFSGSGSGTEFTLTISSLQPEDFATYYCQQLNSYPPFTFGPGTKVDIK | – | no binding | no binding | no binding | no binding | no binding |
| YU505-A02 (antibody, V domains shown) VH: QVQLVESGAEVKKPGSSVKVSCKASGGTFSSYAISWVRQAPGQGLEWMGGIIPIFGTANYAQKFQGRVTITADESTSTAYMELSSLRSEDTAVYYCARQIWAYDSSGYPVPAEYFQHWGQGTLVTVSS VL: QSVLTQPPSVSGAPGQRVTISCTGSSSNIGAGYDVHWYQQLPGTAPKLLIYGNSNRPSGVPDRFSGSKSGTSASLAITGLQAEDEADYYCQSYDSSLSGVVFGGGTKLTVL | – | no binding | no binding | no binding | no binding | no binding |
